The values below come from patent US20130065819.

In series [1] the target is N-terminal FLAG tagged TOE1 mutant D195A.
Series [2] concerns the target N-terminal FLAG tagged TOE1 mutant D282A.
For series [3], the target named is N-terminal FLAG tagged TOE1 mutant D363A.
Series [4] addresses N-terminal FLAG tagged TOE1 mutant D373A.
For series [5], the target named is TOE1 mutated at the ExPASy-predicted caspase-1 cleavage site FTAD (position 214-217).
In series [6] the target is human TOE1 (Target of Egr1).

B1: recombinant caspase-1 (Calbiochem) (protein)
chain: NPAMPTSSGSEGNVKLCSLEEAQRIWKQKSAEIYPIMDKSSRTRLALIICNEEFDSIPRRTGAEVDITGMTMLLQNLGYSVDVKKNLTASDMTTELEAFAHRPEHKTSDSTFLVFMSHGIREGICGKKHSEQVPDILQLNAIFNMLNTKNCPSLKDKPKVIIIQACRGDSPGVVWFKDSVGVSGNLSLPTTEEFEDDAIKKAHIEKDFIAFCSSTPDNVSWRHPTMGSVFIGRLIEHMQEYACSCDVEEIFRKVRFSFEQPDGRAQMPTTERVTLTRCFYLFPGH
For the protein B1, the “in vitro caspase-1 cleavage of immunoprecipitated mutant, Western blot” value in series [1] is “two of these mutations were found to prevent the appearance of a cleavage product of TOE1 upon incubation with caspase-1. These consisted of the D195 and D282 residues within the sites GLID and DIHD respectively”; in series [2], “two of these mutations were found to prevent the appearance of a cleavage product of TOE1 upon incubation with caspase-1. These consisted of the D195 and D282 residues within the sites GLID and DIHD respectively”; in series [3], “caspase-1 cleaves TOE1 at residues 363 and 373 as evidenced by the lack of a 17 kDa fragment in the TOE1 mutants containing an alanine at residues 363 and 373”; in series [4], “caspase-1 cleaves TOE1 at residues 363 and 373 as evidenced by the lack of a 17 kDa fragment in the TOE1 mutants containing an alanine at residues 363 and 373”. In addition, the “in vitro caspase-1 cleavage of mutant, Western blot” value in series [5] was “when the caspase-1 cleavage site predicted using the ExPASy software was mutated (FTAD), in vitro cleavage was maintained”. Further, the “in vitro digestion of immunoprecipitated TOE1 with recombinant caspase-1, Western blot” value in series [6] is “We found that TOE1 was indeed processed by caspase-1, and generated multiple cleaved forms”.
